In patent US20170283495A1 (published 2017):
Where no end group is shown, it is not given here.

B2: murine anti-hepcidin MAb 583 (antibody, V domains shown)
VH: QIQLVQSGPELKKPGETVKISCKASGYTFTNYGMNWVKQAPGKGLKWMGWINTYTGEPTYADDFKGRFAFSLETSASTAYLQINNLKNEDTATYFCTTYATSWYWGQGTTLTVSS
VL: DIVLTQSPASLAVSLGQRATISCRASESVDSYGNSFMHWYQQKPGQPPKLLIYRASNLESGIPARFSGSGSRTDFTLTINPVEADDVATYYCQQSNEDLTFGGGTKLEIK
notes: Murine IgG from a hybridoma, purified on protein G (Protein A in some legends); detected with anti-mouse IgG1 (H+L); also called 5A3; hybridoma 5A3
B3: human hepcidin-20 peptide (peptide)
peptide: ICIFCCGCCHRSKCGMCCKT
notes: also called hep-20; hHepcidin-20

What was measured:
[1] = molecular target: T1, BAP070-01 human-mouse chimeric MAb 583; experiment: C-ELISA, BAP070-01 supernatant on Protein G, hepcidin-25 against NT-biotin hepcidin-25 tracer, 4-parameter fit
T1 construct: tested as unpurified CHO cell supernatant (3650 ng/ml IgG); also called BAP070-01 chimera
Procedure: To capture BAP070-01 chimeric antibodies we coated microwell plates with Protein G (150 ng/well) overnight in carbonate coating buffer.
The plate was washed with TBST and one (1) ng/well of NT-biotin hepcidin-25 was mixed with different amounts (0-100 ng) of synthetic hepcidin-25 standard in TBST, 0.25% BLOTTO and added onto the plate to bind competitively. The plate was washed with TBST and SA-HRP (1:2500) added and allowed to bind for 1 hour.
The standard curve shown in FIG. 31 was generated using a four parameter logistical regression (Graphpad Prism; San Diego, Calif.).

[2] = molecular target: B2; experiment: C-ELISA, purified MAb 583 coated, hepcidin-25 against NT-biotin hepcidin-25 tracer (FIG. 16)
Procedure: FIG. 16. […] The relative binding of the NT-biotin hepcidin-25 tracer (1 ng/well) relative to hepcidin-25, hepcidin-22, and hepcidin-20 was measured by ELISA. Four parameter logistical regression analysis was conducted using GraphPad Prism software to produce the curves shown.

[3] = molecular target: T2, mouse hepcidin-1 peptide (mouse); experiment: competition ELISA, MAb 583 coated, NT-biotin hepcidin-25 tracer
T2 construct: also called murine hepcidin-1; mouse hepcidin-25
T2 peptide: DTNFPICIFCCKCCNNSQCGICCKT

[4] = molecular target: T3, human hepcidin 10-25 peptide (human, disulfide (positions not given here); also: oxidized and refolded with proper cysteine bonds, pairing not given here); experiment: as above
T3 construct: also called hep 10-25; hHepcidin 10-25
T3 peptide: CCGCCHRSKCGMCCKT

[5] = molecular target: T4, NT-biotin hepcidin-25 (human, NT-biotin (biotin label; NT is not spelled out, taken as the N-terminus)); experiment: ELISA, 583 coated at 25 ng/well, tracer 1 ng/well, SA-HRP
T4 construct: also called NT-biotin hepcidin-25 tracer
T4 peptide: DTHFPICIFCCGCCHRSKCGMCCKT
Procedure: (§1) We used a microwell plate ELISA to assess antibody activity. […] The NT-biotin hepcidin-25 tracer was added across the plate at 1 ng/well in TBST, pH 8) containing 0.25% Blotto. The tracer was allowed to bind for 2 hours and the wells were washed in TBST, pH 8 with no Blotto. SA-HRP was added at 1:2500 for 30 minutes, the wells washed in TBST, and TMB substrate added for 10 minutes. Stop buffer was added the OD quantified on a spectrophotometer at 450 nm. An OD of 4 indicates the absorbance is beyond the analytic range of the spectrophotomer.

[6] = molecular target: T4, NT-biotin hepcidin-25; experiment: ELISA, 583 coated at 12.5 ng/well, tracer 1 ng/well, SA-HRP
Procedure: as §1

[7] = molecular target: T5, K18-biotin hepcidin-25 (human, biotin on K18); experiment: Biacore SPR, biotin peptide on chip, MAb 583 at 5 µg/ml
T5 construct: also called K18-Biotin Hepcidin-25 tracer
T5 peptide: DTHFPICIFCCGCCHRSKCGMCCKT

[8] = molecular target: T4, NT-biotin hepcidin-25; experiment: as above
[9] = molecular target: T5, K18-biotin hepcidin-25; experiment: Biacore SPR, biotin peptide on neutravidin chip, MAb 583 at 24 µg/ml
Procedure: (§2) Biotinylated hepcidin peptides (NT-biotin-hepcidin-25, K18-biotin-hepcidin-25 and K24-biotin-hepcidin-25) were immobilized in flow cells 2-4 (one peptide species per flow cell) by injecting individual peptides at a concentration of 200 μg/ml at a flow rate of 5 μl/min, for 20 min.
(§3) After 3 minutes, injection was stopped and dissociation was followed for 6 min. Regeneration was performed by injecting 10 mM glycine HCl, pH 1.5 at a flow rate of 10 μl/min for 1 min.

[10] = molecular target: T4, NT-biotin hepcidin-25; experiment: as above
Procedure: as §2, §3

[11] = molecular target: T6, K24-biotin hepcidin-25 (human, biotin on K24); experiment: as above
T6 construct: also called K24-biotin hepcidin-25 tracer
T6 peptide: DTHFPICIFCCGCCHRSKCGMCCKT
Procedure: as §2, §3

[12] = molecular target: T4, NT-biotin hepcidin-25; experiment: ELISA, 583 coated at 50 ng/well, tracer 1 ng/well, SA-HRP
Procedure: as §1

[13] = molecular target: B3; experiment: Western blot after non-reducing tricine SDS-PAGE
[14] = molecular target: T4, NT-biotin hepcidin-25; experiment: ELISA, 583 coated at 100 ng/well, tracer 1 ng/well, SA-HRP
Procedure: as §1

[15] = molecular target: B2; experiment: competition ELISA, MAb 583 coated, NT-biotin hepcidin-25 tracer

B1: human hepcidin-25 (synthetic) (peptide)
peptide: DTHFPICIFCCGCCHRSKCGMCCKT
notes: Synthetic, biologically active 25 aa peptide; also called hep-25; Hep-25
EC50 [1]: 0.054 µg/mL | EC50 [2]: ≤ 0.005 µg/mL

B2
binding result [3]: no binding (tested: up to 2000 ng/ml) | binding result [4]: no binding (tested: up to 2000 ng/ml) | OD 450 nm [5]: ≥ 4 OD | OD 450 nm [6]: ≥ 4 OD | Kd [7]: ~0.0075 nM | Kd [8]: ~0.018 nM | Ka [9]: 1.14e+09 M⁻¹ | Kd [9]: 0.878 nM | Req [9]: 126 RU | kobs [9]: 0.0102 s⁻¹ | koff [9]: 5.59e-05 s⁻¹ | kon [9]: 63700 M⁻¹ s⁻¹ | Ka [10]: 1.94e+10 M⁻¹ | Kd [10]: 0.0516 nM | Req [10]: 78.8 RU | kobs [10]: 0.00977 s⁻¹ | koff [10]: 3.15e-06 s⁻¹ | kon [10]: 61100 M⁻¹ s⁻¹ | Ka [11]: 1.8e+08 M⁻¹ | Kd [11]: 5.54 nM | Req [11]: 63.1 RU | kobs [11]: 0.0086 s⁻¹ | koff [11]: 0.000288 s⁻¹ | kon [11]: 52000 M⁻¹ s⁻¹ | OD 450 nm [12]: ≥ 4 OD | binding result [13]: binds | OD 450 nm [14]: ≥ 4 OD

B3
binding result [15]: binds
